From patent US20260265321A1, “PEPTIDE AND POLYPEPTIDE INHIBITING THE NF-KB SIGNALING PATHWAY” (Centre National de la Recherche Scientifique, priority 2023, published 2026)
Blank lines part the entries; values can stand above or below the binder they belong to.

B1: G1-IKKα, full-length wt IKKα fused to the Gluc1 fragment (enzyme, human, UniProt O15111 1-745, looked up)
chain: MERPPGLRPGAGGPWEMRERLGTGGFGNVCLYQHRELDLKIAIKSCRLELSTKNRERWCHEIQIMKKLNHANVVKACDVPEELNILIHDVPLLAMEYCSGGDLRKLLNKPENCCGLKESQILSLLSDIGSGIRYLHENKIIHRDLKPENIVLQDVGGKIIHKIIDLGYAKDVDQGSLCTSFVGTLQYLAPELFENKPYTATVDYWSFGTMVFECIAGYRPFLHHLQPFTWHEKIKKKDPKCIFACEEMSGEVRFSSHLPQPNSLCSLVVEPMENWLQLMLNWDPQQRGGPVDLTLKQPRCFVLMDHILNLKIVHILNMTSAKIISFLLPPDESLHSLQSRIERETGINTGSQELLSETGISLDPRKPASQCVLDGVRGCDSYMVYLFDKSKTVYEGPFASRSLSDCVNYIVQDSKIQLPIIQLRKVWAEAVHYVSGLKEDYSRLFQGQRAAMLSLLRYNANLTKMKNTLISASQQLKAKLEFFHKSIQLDLERYSEQMTYGISSEKMLKAWKEMEEKAIHYAEVGVIGYLEDQIMSLHAEIMELQKSPYGRRQGDLMESLEQRAIDLYKQLKHRPSDHSYSDSTEMVKIIVHTVQSQDRVLKELFGHLSKLLGCKQKIIDLLPKVEVALSNIKEADNTVMFMQGKRQKEIWHLLKIACTQSSARSLVGSSLEGAVTPQTSAWLPPTSAEHDHSLSCVVTPQDGETSAQMIEENLNCLGHLSTIIHEANEEQGNSMMNLDWSWLTE
notes: Expressed in HEK293T cells for GPCA; full-length; also called Gluc1-IKKα; not shown: Gluc1 fragment of Gaussia princeps luciferase and flexible 20 amino acid linker, N-terminal

Assays:
G2-p100 1-852 = biological target: T1, G2-p100 1-852 (UniProt Q00653 1-852); assay: GPCA (Gaussia princeps protein complementation assay), G1-IKKα FL with G2-p100 constructs, NLR
T1 construct: range 1-852; not shown: Gluc2 fragment of Gaussia princeps luciferase and flexible 20 amino acid linker, N-terminal
T1 sequence (looked up): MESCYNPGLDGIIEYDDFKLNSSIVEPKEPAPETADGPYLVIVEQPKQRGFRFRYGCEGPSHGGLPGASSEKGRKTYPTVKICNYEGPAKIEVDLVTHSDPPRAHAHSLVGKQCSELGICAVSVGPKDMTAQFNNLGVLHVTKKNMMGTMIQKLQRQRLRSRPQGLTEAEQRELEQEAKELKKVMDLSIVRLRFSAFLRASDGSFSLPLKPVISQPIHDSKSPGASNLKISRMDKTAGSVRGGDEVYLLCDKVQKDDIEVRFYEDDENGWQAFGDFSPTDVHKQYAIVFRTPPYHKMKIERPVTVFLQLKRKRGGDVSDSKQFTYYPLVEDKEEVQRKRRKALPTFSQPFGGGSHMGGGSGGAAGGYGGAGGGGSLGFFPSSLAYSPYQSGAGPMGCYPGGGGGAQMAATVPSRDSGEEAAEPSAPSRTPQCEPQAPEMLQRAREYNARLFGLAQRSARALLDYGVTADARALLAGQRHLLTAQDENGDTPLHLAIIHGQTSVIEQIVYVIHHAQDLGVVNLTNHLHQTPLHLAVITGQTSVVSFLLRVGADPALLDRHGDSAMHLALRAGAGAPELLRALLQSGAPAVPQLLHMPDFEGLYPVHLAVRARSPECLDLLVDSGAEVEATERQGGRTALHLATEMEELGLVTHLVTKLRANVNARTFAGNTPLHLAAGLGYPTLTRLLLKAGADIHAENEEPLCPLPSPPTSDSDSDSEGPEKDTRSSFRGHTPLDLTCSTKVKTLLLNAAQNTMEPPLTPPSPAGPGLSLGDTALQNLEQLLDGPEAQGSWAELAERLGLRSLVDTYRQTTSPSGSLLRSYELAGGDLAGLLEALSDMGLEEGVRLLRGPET
Method: (§1) HEK293T cells were transfected using the reverse transfection method. Transfection mixes containing 100 ng of pSPICA-N2 and 100 ng of pSPICA-N1 plasmids expressing test proteins plus JetPEI® (Polyplus transfection) were dispensed in white 96-well plates. HEK293T cells were then seeded on the DNA mixes at a concentration of 4.2×10^4 cells per well. 48 hours after transfection, cells were washed with 50 μl of PBS and lysed with 40 μl of Renilla lysis buffer (Promega, E2820) for 30 minutes with agitation. Gaussia princeps luciferase enzymatic activity was measured using a Berthold Centro LB960 luminometer by injecting 50 μl per well of luciferase substrate reagent (Promega, E2820) and counting luminescence for 10 seconds. Results are expressed as a fold change normalized over the sum of controls, specified herein as normalized luminescence ratio (NLR) 29. For a given protein pair A/B, NLR=(Gluc1-A+Gluc2-B)/[(Gluc1-A+Gluc2)+(Gluc1+Gluc2-B)]. All interactions were measured in three independent experiments, with each experiment being carried out in triplicate. The expression levels of Gluc1- and Gluc2-fused proteins were checked by Western blotting. 24 hours post-transfection, HEK293T cells were collected, lysed by incubation on ice and centrifuged. Aliquots of cleared supernatants were loaded onto an 10% SDS-PAGE gel.

[1] = biological target: B1; assay: as above
Method: as §1

[2] = biological target: T2, IKKβ(1-669) S177E/S181E homodimer, 6×His tag removed (human, UniProt O14920 1-669); assay: ITC
T2 sequence (looked up): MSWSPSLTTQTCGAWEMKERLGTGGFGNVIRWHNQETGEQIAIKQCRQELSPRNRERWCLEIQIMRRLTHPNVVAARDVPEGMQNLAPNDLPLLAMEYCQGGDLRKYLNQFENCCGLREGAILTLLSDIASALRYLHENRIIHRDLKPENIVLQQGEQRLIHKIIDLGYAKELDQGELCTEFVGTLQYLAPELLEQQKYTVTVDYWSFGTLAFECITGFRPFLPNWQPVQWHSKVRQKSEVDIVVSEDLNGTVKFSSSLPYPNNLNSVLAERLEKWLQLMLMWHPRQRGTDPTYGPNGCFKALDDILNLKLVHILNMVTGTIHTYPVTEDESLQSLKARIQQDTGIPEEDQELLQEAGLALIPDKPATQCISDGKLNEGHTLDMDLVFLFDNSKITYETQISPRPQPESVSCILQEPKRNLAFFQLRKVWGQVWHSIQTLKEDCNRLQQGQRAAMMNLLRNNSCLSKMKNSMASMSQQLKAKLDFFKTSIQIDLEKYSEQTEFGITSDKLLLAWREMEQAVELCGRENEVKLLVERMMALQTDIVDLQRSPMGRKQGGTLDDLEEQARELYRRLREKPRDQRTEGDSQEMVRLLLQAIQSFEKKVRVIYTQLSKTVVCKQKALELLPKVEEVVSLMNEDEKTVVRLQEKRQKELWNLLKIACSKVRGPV
Method: (§2) All experiments were performed in ITC buffer (20 mM HEPES pH 8.0, 150 mM NaCl, 1 mM TCEP) unless otherwise stated. […] Just before the ITC experiments, IKKα or IKKβ samples were concentrated, incubated at room temperature for 30 minutes and centrifuged at 11000 g to remove eventual precipitate. The final concentrations of IKKα and IKKβ in the sample cell varied between 22 and 50 μM depending on the measurement. […] The concentration of peptides in the syringe varied between 220 and 975 μM depending on the measurement.
(§3) All ITC experiments were performed at 25° C. The data were fitted to a 1:1 binding model. […] All data were processed using NITPIC software and global fitting of two datasets was carried out using SEDPHAD.

[3] = biological target: T3, IKKα(10-667) S176E/S180E homodimer, 6×His tag removed (human, UniProt O15111 10-667); assay: ITC
T3 construct: also called purified IKKα
T3 sequence (looked up): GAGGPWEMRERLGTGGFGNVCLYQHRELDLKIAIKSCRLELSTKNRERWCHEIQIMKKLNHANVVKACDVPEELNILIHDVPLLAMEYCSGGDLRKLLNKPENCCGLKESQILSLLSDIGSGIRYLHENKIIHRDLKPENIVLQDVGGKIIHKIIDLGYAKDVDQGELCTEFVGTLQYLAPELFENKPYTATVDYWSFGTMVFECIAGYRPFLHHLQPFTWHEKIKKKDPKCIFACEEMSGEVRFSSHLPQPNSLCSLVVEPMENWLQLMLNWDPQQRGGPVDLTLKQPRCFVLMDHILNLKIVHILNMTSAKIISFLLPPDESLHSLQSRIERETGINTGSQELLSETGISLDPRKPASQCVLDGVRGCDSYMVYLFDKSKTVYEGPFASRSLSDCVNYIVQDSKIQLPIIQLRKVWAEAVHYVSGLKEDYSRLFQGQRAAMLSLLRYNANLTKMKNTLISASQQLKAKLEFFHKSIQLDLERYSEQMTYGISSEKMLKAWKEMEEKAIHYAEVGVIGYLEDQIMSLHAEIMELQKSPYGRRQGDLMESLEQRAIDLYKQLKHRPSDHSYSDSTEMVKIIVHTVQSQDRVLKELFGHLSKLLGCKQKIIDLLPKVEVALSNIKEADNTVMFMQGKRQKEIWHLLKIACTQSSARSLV
Method: as §2, §3

[4] = biological target: T2, IKKβ(1-669) S177E/S181E homodimer, …; assay: ITC, 25 °C, synthetic peptide into IKK homodimer, 1:1 model
Method: as §2, §3

[5] = biological target: T3, IKKα(10-667) S176E/S180E homodimer, …; assay: as above
Method: as §2, §3

Binder: B1
binding result (G2-p100 1-852): binds

binding result [1]: binds
B2: FL YD/SS (other)
chain: MESCYNPGLDGIIESDSFKLNSSIVEPKEPAPETADGPYLVIVEQPKQRGFRFRYGCEGPSHGGLPGASSEKGRKTYPTVKICNYEGPAKIEVDLVTHSDPPRAHAHSLVGKQCSELGICAVSVGPKDMTAQFNNLGVLHVTKKNMMGTMIQKLQRQRLRSRPQGLTEAEQRELEQEAKELKKVMDLSIVRLRFSAFLRASDGSFSLPLKPVISQPIHDSKSPGASNLKISRMDKTAGSVRGGDEVYLLCDKVQKDDIEVRFYEDDENGWQAFGDFSPTDVHKQYAIVFRTPPYHKMKIERPVTVFLQLKRKRGGDVSDSKQFTYYPLVEDKEEVQRKRRKALPTFSQPFGGGSHMGGGSGGAAGGYGGAGGGGSLGFFPSSLAYSPYQSGAGPMGCYPGGGGGAQMAATVPSRDSGEEAAEPSAPSRTPQCEPQAPEMLQRAREYNARLFGLAQRSARALLDYGVTADARALLAGQRHLLTAQDENGDTPLHLAIIHGQTSVIEQIVYVIHHAQDLGVVNLTNHLHQTPLHLAVITGQTSVVSFLLRVGADPALLDRHGDSAMHLALRAGAGAPELLRALLQSGAPAVPQLLHMPDFEGLYPVHLAVRARSPECLDLLVDSGAEVEATERQGGRTALHLATEMEELGLVTHLVTKLRANVNARTFAGNTPLHLAAGLGYPTLTRLLLKAGADIHAENEEPLCPLPSPPTSDSDSDSEGPEKDTRSSFRGHTPLDLTCSTKVKTLLLNAAQNTMEPPLTPPSPAGPGLSLGDTALQNLEQLLDGPEAQGSWAELAERLGLRSLVDTYRQTTSPSGSLLRSYELAGGDLAGLLEALSDMGLEEGVRLLRGPETRDKLPSTAEVKEDSAYGSQSVEQEAEKLGPPPEPPGGLCHGHPQPQVH
notes: also called G2-p100 FL YD/SS; G2-p100 FL Y15S/D17S; not shown: N-terminal Gluc2 fragment of Gaussia princeps luciferase and the flexible 20 amino acid linker (pSPICA-N2)

fold enhancement of affinity against IκBα pep wt [2]: 15 fold
fold enhancement of affinity against IκBα pep wt [3]: 25 fold
Kd [4]: 2600 nM
N (binding stoichiometry) [4]: 0.63
TΔS [4]: -4.59 kcal/mol
ΔG [4]: -7.61 kcal/mol
ΔH [4]: -12.2 kcal/mol
Kd [5]: 350 nM
N (binding stoichiometry) [5]: 0.65
TΔS [5]: -4.71 kcal/mol
ΔG [5]: -8.8 kcal/mol
ΔH [5]: -13.5 kcal/mol
B3: synthetic IκBα pep C308L (peptide)
peptide: EFTEDELPYDDLVFGGQRLTL
notes: also called C308L IκBα pep; IkBα pep C308L
